Laboratory results: US20240067751A1 (KEYMED BIOSCIENCES, published 2024)
Positions count from the first letter of the chain named.

B1: chimeric antibody 4F18 (antibody, V domains shown)
VH: EVQLQESGPGLVKPSQSLSLACTVTGYSITSDYAWHWIRQFPGNKLEWMGFISYSGRTNYNPPLTSRISITRDTSKNQFFLQLNSVTTEDTATYYCARSYDYWFGYWGQGTLVTVSA
VL: NVLMTQTPLSLPVSLGDQASISCRSSQSLVHSNGNTYLEWYMQKPGQSPKLLIYTVSRRFSGVPDRFSGSGSGTDFTLKISRVEAEDLGVYYCFQGSHVPVTFGAGTKLELK
notes: to be rechecked
B2: h16B11 H1K1 (antibody, V domains shown)
VH: QMQLQESGPGLVKPSETLSLTCTVSGYSITSDYAWNWIRQPPGKGLEWIGYISYSGRTSYNPSLKSRVTISRDTSKNQFSLKLSSVTAADTAVYYCARHYGDYWGQGTLVTVSS
VL: DIQMTQSPSSLSASVGDRVTITCRASQNVGTNVAWYQQKPGKAPKALIYSASYRESGVPSRFSGSGSGTDFTLTISSLQPEDFATYFCQQFNTNPLTFGGGTKVEIK
B3: h16B11 H2K3 (antibody, V domains shown)
VH: B2 VH with M2L
VL: B2 VL with E55Q
B4: h16B11 H1K3 (antibody, V domains shown)
VH: B2 VH
VL: B2 VL with E55Q
B5: h16B11 H2K1 (antibody, V domains shown)
VH: B2 VH with M2L
VL: B2 VL
B6: h16B11 H3K1 (antibody, V domains shown)
VH: B2 VH with M2L, R72V
VL: B2 VL
B7: h16B11 H3K3 (antibody, V domains shown)
VH: B2 VH with M2L, R72V
VL: B2 VL with E55Q
B8: h3H6 H1K1 (antibody, V domains shown)
VH: QVQLVQSGAEVKKPGSSVKVSCKASGYTFATYSIHWVRQAPGQGLEWMGYINPSSGYTNYNQKFQGRVTLTADKSTSTAYMELSSLRSEDTAVYYCARVYYTFYHAMDYWGQGTTVTVSS
VL: DIQMTQSPSSLSASVGDRVTITCRASQDVNTAVAWYQQKPGKAPKLLIYSASYRYTGVPSRFSGSGSGTDFTLTISSLQPEDFATYYCQQHYNIPLTFGGGTKVEIK
B9: h3H6 H4K1 (antibody, V domains shown)
VH: B8 VH with L70I, K74E
VL: B8 VL
B10: h28O14 H4K1 (antibody, V domains shown)
VH: QVQLVQSGAEVKKPGSSVKVSCKASGYTFRSHTMHWVRQAPGQGLEWMGYINPSTGYINYNQKFQGRVTITADESTSTAYMELSSLRSEDTAVYYCARSNYAYYYGMDYWGQGTTVTVSS
VL: B8 VL
B11: h16B11 H1K2 (antibody, V domains shown)
VH: B2 VH
VL: B2 VL with A46L
B12: h28O14 H3K1 (antibody, V domains shown)
VH: B10 VH with E74K
VL: B8 VL
B13: h28O14 H1K1 (antibody, V domains shown)
VH: B10 VH with I70L, E74K
VL: B8 VL
B14: h16B11 H3K2 (antibody, V domains shown)
VH: B2 VH with M2L, R72V
VL: B2 VL with A46L
B15: h28O14 H2K1 (antibody, V domains shown)
VH: B10 VH with I70L
VL: B8 VL
B16: h3H6 H2K1 (antibody, V domains shown)
VH: B8 VH with K74E
VL: B8 VL
B17: h3H6 H3K1 (antibody, V domains shown)
VH: B8 VH with L70I
VL: B8 VL
B18: h16B11 H2K2 (antibody, V domains shown)
VH: B2 VH with M2L
VL: B2 VL with A46L
B19: h16B11 H1K4 (antibody, V domains shown)
VH: B2 VH
VL: EIVMTQSPATLSVSPGERATLSCRASQNVGTNVAWYQQKPGQAPRALIYSASYRESGIPARFSGSGSGTEFTLTISSLQSEDFAVYFCQQFNTNPLTFGGGTKVEIK
B20: h16B11 H2K6 (antibody, V domains shown)
VH: B2 VH with M2L
VL: B19 VL with E55Q
B21: h16B11 H2K5 (antibody, V domains shown)
VH: B2 VH with M2L
VL: B19 VL with A46L
B22: h16B11 H3K5 (antibody, V domains shown)
VH: B2 VH with M2L, R72V
VL: B19 VL with A46L
B23: h16B11 H1K5 (antibody, V domains shown)
VH: B2 VH
VL: B19 VL with A46L
B24: h16B11 H1K6 (antibody, V domains shown)
VH: B2 VH
VL: B19 VL with E55Q
B25: h16B11 H3K6 (antibody, V domains shown)
VH: B2 VH with M2L, R72V
VL: B19 VL with E55Q
B26: h16B11 H2K4 (antibody, V domains shown)
VH: B2 VH with M2L
VL: B19 VL
B27: h16B11 H3K4 (antibody, V domains shown)
VH: B2 VH with M2L, R72V
VL: B19 VL

These binders were tested against T1, Cynomolgus monkey MASP-2 D4-6 recombinant protein (Cynomolgus monkey, UniProt O00187 298-686 (human entry), limits assumed) (assay: SPR Biacore T200, antibody on Protein A chip, antigen as analyte, 1:1 fit).
T1 construct: Made 'similarly' to the human protein (N-terminal his6 tag)
Protocol: (§1) Surface plasmon resonance technology (SPR/Biacore T200) was used to capture 0.1 μg/ml of the antibody on the surface of the Protein A chip, with a capture time of 40 seconds and a flow rate of 10 μl/min. The chip was washed with buffer until the baseline leveled off, then gradient-diluted antigen was flowed through the chip at the flow rate of 30 μl/min, with a binding time of 120 sec and a dissociation time of 600 sec. The equilibrium dissociation constant (KD) was obtained by fitting in Langmuir 1:1 kinetics mode.

T1 sequence (O00187 other isoform, or with tags, fused parts or gaps limits assumed): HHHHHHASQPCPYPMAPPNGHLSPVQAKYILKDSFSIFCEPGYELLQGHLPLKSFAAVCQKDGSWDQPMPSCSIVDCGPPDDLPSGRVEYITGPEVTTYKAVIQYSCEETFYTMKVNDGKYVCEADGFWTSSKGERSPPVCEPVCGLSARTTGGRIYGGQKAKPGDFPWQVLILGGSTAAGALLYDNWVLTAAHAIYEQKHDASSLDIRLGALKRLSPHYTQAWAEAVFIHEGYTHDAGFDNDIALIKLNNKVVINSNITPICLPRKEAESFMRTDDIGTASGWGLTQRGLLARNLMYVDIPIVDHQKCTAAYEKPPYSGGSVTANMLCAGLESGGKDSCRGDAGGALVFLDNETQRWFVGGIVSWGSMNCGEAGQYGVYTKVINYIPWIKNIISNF

B1 showed a Kd of 24.8 nM.

Each binder was assayed against T2, mouse MASP-2 D4-6 recombinant protein (mouse, UniProt Q91WP0 298-685) in the same assay as above.
T2 construct: Made 'similarly' to the human protein (N-terminal his6 tag)
Protocol: as §1

T2 sequence (Q91WP0 other isoform, or with tags, fused parts or gaps limits assumed): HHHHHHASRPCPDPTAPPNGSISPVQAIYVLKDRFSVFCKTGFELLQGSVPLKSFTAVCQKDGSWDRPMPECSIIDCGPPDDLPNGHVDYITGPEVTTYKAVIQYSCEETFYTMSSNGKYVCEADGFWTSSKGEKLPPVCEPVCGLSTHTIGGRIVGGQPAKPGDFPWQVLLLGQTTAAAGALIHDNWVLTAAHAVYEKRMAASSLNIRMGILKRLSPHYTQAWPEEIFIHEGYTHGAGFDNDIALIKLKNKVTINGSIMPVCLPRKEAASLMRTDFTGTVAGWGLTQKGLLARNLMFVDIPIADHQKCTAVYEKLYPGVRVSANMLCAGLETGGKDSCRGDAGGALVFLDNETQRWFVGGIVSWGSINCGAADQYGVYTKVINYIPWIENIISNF

B1 gave a Kd of 218 nM.

What follows are binders tested against T3, human MASP-2 D4-6 recombinant protein (human, UniProt O00187 298-686) in the same assay as above.
T3 construct: his6 tag fused at the N-terminus, made in HEK293E; also called enzymatic activity domains CCP1-CCP2-SP of human MASP-2
Protocol: as §1

T3 sequence (O00187 other isoform, or with tags, fused parts or gaps limits assumed): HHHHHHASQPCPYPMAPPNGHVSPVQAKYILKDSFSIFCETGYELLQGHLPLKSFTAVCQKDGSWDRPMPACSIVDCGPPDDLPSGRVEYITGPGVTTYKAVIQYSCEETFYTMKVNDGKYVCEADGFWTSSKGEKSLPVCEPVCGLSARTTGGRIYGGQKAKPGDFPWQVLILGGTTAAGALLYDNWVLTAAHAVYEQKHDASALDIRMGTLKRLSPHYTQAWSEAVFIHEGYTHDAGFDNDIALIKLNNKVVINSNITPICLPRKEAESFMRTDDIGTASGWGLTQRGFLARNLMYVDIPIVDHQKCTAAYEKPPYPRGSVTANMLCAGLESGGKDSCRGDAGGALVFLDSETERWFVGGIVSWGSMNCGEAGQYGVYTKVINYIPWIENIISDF

B1 was tested, and the Kd was 0.108 nM.

These binders were tested against T1, Cynomolgus monkey MASP-2 D4-6 … (assay: ELISA, antigen coated, chimeric IgG titrated, anti-human Fc-HRP).

B1 showed an EC50 of 3 pM.

What follows are binders tested against T2, mouse MASP-2 D4-6 recombinant protein in the same assay as above.

B1 gave an EC50 of 0.287 nM.

What follows are binders tested against T3, human MASP-2 D4-6 recombinant protein in the same assay as above.

B1 showed an EC50 of 4 pM.

The binders below were run against T4, MASP-2 in human serum (human, UniProt O00187 16-686) (assay: cell-based or functional assay).
T4 sequence (O00187 16-686 limits assumed): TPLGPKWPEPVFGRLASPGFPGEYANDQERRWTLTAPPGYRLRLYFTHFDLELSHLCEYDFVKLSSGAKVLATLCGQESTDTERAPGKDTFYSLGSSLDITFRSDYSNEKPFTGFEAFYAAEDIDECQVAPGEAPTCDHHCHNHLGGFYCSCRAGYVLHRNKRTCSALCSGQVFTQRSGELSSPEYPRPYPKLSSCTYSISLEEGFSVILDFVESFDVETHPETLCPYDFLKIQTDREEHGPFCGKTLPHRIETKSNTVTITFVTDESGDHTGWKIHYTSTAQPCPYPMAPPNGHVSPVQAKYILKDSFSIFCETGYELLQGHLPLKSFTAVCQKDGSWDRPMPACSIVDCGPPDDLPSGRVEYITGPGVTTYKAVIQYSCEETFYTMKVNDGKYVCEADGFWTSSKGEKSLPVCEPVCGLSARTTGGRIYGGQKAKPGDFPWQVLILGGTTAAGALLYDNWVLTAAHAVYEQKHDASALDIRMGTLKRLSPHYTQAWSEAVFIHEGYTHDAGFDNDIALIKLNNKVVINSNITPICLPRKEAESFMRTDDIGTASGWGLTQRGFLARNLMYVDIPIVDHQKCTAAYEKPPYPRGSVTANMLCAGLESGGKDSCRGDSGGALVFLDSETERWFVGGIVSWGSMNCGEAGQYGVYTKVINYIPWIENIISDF

In order of rising “IC50, inhibition of C4b deposition” value:
1. B3  0.012 nM
2. B8  0.014 nM
3. B17  0.017 nM
4. B2  0.02 nM
5. B5  0.02 nM
6. B4  0.021 nM
7. B18  0.032 nM
8. B11  0.051 nM
9. B12  0.064 nM
10. B13  0.083 nM
11. B16  0.086 nM
12. B9  0.09 nM
13. B6  0.098 nM
14. B15  0.324 nM
15. B10  0.338 nM
16. B7  0.44 nM
17. B14  1.69 nM

Biological target: T4, MASP-2 in human serum
Test: cell-based or functional assay
Remark: another data set of the same source

In order of falling “IC50, inhibition of C3b deposition” value:
1. B10  0.506 nM
2. B15  0.483 nM
3. B22  0.44 nM
4. B14  0.399 nM
5. B12  0.161 nM
6. B9  0.151 nM
7. B16  0.151 nM
8. B13  0.146 nM
9. B7  0.112 nM
10. B25  0.071 nM
11. B6  0.06 nM
12. B27  0.052 nM
13. B11  0.04 nM
14. B17  0.034 nM
15. B21  0.032 nM
16. B8  0.03 nM
17. B18  0.028 nM
18. B23  0.024 nM
19. B4  0.023 nM
20. B20  0.018 nM
21. B3  0.018 nM
22. B24  0.018 nM
23. B5  0.017 nM
24. B19  0.015 nM
25. B26  0.015 nM
26. B2  0.014 nM
